These are literature values, as cited in patent US8901073B2, “Compounds and their effects on feeding behaviour” (Imperial Innovations Limited, priority 2011, dated 2014).

The conditions of this data set: endogenous PYY in circulation; cited from earlier work.

Regarding “endogenous PYY: peptide YY polypeptide, a hormone secreted into the blood by cells lining the lower small intestine and the colon”, the half life result is reported as “several minutes”.
